Measurements published in the supplement of paper PMC11246515.
± gives the standard deviation of the averaged measurements.

Assay: total protein half-life in vivo (active degradation + dilution); higher = more stable protein
[1] = wild type E. coli NCM3722, growth: N-lim chemostat, doubling time 6 h
[2] = wild type E. coli NCM3722, growth: P-lim chemostat, doubling time 6 h
[3] = wild type E. coli NCM3722, growth: P-lim chemostat, doubling time 12 h
[4] = E. coli NCM3722 delta-clpP delta-lon delta-hslV, growth: N-lim chemostat, doubling time 6 h
[5] = E. coli NCM3722 delta-clpP, growth: N-lim chemostat, doubling time 6 h
[6] = E. coli NCM3722 delta-hslV, growth: N-lim chemostat, doubling time 6 h
[7] = E. coli NCM3722 delta-lon, growth: N-lim chemostat, doubling time 6 h
[8] = E. coli NCM3722 delta-smpB, growth: N-lim chemostat, doubling time 6 h
[9] = wild type E. coli NCM3722, growth: C-lim chemostat, doubling time 3 h
[10] = wild type E. coli NCM3722, growth: C-lim chemostat, doubling time 6 h
[11] = wild type E. coli NCM3722, growth: C-lim chemostat, doubling time 12 h
[12] = wild type E. coli NCM3722, growth: N-lim chemostat, doubling time 12 h

In the case of “MSIKQMPGRVLISLLLSVTGLLSGCASHNENASLLAKKQAQNISQNLPIKSAGYTLVLAQSSGTTVKMTIISEAGTQTTQTPDAFLTSYQRQMCADPTVKLMITEGINYSITINDTRTGNQYQRKLDRTTCGIVKA”, the “total protein half-life in vivo” value [1] is reported as over 8 h, the “total protein half-life in vivo” value [2] is reported as 3.91 ± 0.68 h and the “total protein half-life in vivo” value [3] is reported as 7.3 ± 0.4 h.

In the case of “MSILVTRPSPAGEELVSRLRTLGQVAWHFPLIEFSPGQQLPQLADQLAALGESDLLFALSQHAVAFAQSQLHQQDRKWPRLPDYFAIGRTTALALHTVSGQKILYPQDREISEVLLQLPELQNIAGKRALILRGNGGRELIGDTLTARGAEVTFCECYQRCAIHYDGAEEAMRWQAREVTMVVVTSGEMLQQLWSLIPQWYREHWLLHCRLLVVSERLAKLARELGWQDIKVADNADNDALLRALQ”, the “total protein half-life in vivo” value [4] is reported as 5.34 ± 0.71 h, the “total protein half-life in vivo” value [5] is reported as 4.14 ± 0.96 h and the “total protein half-life in vivo” value [6] is reported as 4.13 ± 0.24 h. For the same sequence, the “total protein half-life in vivo” value [7] was 4.69 ± 0.62 h, the “total protein half-life in vivo” value [8] was 3.57 ± 0.23 h and the “total protein half-life in vivo” value [9] was 2.351 ± 0.014 h. The “total protein half-life in vivo” value [10] was 4.45 ± 0.14 h, the “total protein half-life in vivo” value [11] was 9.45 ± 3.5 h and the “total protein half-life in vivo” value [1] was 3.83 ± 0.21 h. The “total protein half-life in vivo” value [12] was 6.5 ± 0.57 h, the “total protein half-life in vivo” value [2] was 5.08 ± 0.62 h and the “total protein half-life in vivo” value [3] was 9.38 ± 0.13 h.

In the case of “MSIPFTRWPEEFARRYREKGYWQDLPLTDILTRHAASDSIAVIDGERQLSYRELNQAADNLACSLRRQGIKPGETALVQLGNVAELYITFFALLKLGVAPVLALFSHQRSELNAYASQIEPALLIADRQHALFSGDDFLNTFVTEHSSIRVVQLLNDSGEHNLQDAINHPAEDFTATPSPADEVAYFQLSGGTTGTPKLIPRTHNDYYYSVRRSVEICQFTQQTRYLCAIPAAHNYAMSSPGSLGVFLAGGTVVLAADPSATLCFPLIEKHQVNVTALVPPAVSLWLQALIEGESRAQLASLKLLQVGGARLSATLAARIPAEIGCQLQQVFGMAEGLVNYTRLDDSAEKIIHTQGYPMCPDDEVWVADAEGNPLPQGEVGRLMTRGPYTFRGYYKSPQHNASAFDANGFYCSGDLISIDPEGYITVQGREKDQINRGGEKIAAEEIENLLLRHPAVIYAALVSMEDELMGEKSCAYLVVKEPLRAVQVRRFLREQGIAEFKLPDRVECVDSLPLTAVGKVDKKQLRQWLASRASA”, the “total protein half-life in vivo” value [4] is reported as 5.38 h, the “total protein half-life in vivo” value [5] is reported as 4.77 h and the “total protein half-life in vivo” value [6] is reported as 5.82 h. For the same sequence, the “total protein half-life in vivo” value [9] was 2.73 ± 0.086 h, the “total protein half-life in vivo” value [10] was 5.32 h and the “total protein half-life in vivo” value [3] was 10.7 h.

In the case of “MSIQLNGINCFYGAHQALFDITLDCPQGETLVLLGPSGAGKSSLLRVLNLLEMPRSGTLNIAGNHFDFTKTPSDKAIRDLRRNVGMVFQQYNLWPHLTVQQNLIEAPCRVLGLSKDQALARAEKLLERLRLKPYSDRYPLHLSGGQQQRVAIARALMMEPQVLLFDEPTAALDPEITAQIVSIIRELAETNITQVIVTHEVEVARKTASRVVYMENGHIVEQGDASCFTEPQTEAFKNYLSH [P0AAF6]”, the “total protein half-life in vivo” value [4] is reported as 6.06 ± 0.7 h, the “total protein half-life in vivo” value [5] is reported as 5.54 ± 0.19 h and the “total protein half-life in vivo” value [6] is reported as 6.4 h. For the same sequence, the “total protein half-life in vivo” value [7] was 5.57 ± 0.91 h, the “total protein half-life in vivo” value [8] was 4.77 ± 0.37 h and the “total protein half-life in vivo” value [9] was over 4 h. For the same sequence, the “total protein half-life in vivo” value [10] was 6.19 ± 0.35 h, the “total protein half-life in vivo” value [11] was 11.9 h and the “total protein half-life in vivo” value [1] was 5.55 ± 0.86 h. The “total protein half-life in vivo” value [12] was 10.5 ± 0.48 h, the “total protein half-life in vivo” value [2] was 6.11 h and the “total protein half-life in vivo” value [3] was 11.6 ± 0.25 h.

In the case of “MSIVVKNNIHWVGQRDWEVRDFHGTEYKTLRGSSYNSYLIREEKNVLIDTVDHKFSREFVQNLRNEIDLADIDYIVINHAEEDHAGALTELMAQIPDTPIYCTANAIDSINGHHHHPEWNFNVVKTGDTLDIGNGKQLIFVETPMLHWPDSMMTYLTGDAVLFSNDAFGQHYCDEHLFNDEVDQTELFEQCQRYYANILTPFSRLVTPKITEILGFNLPVDMIATSHGVVWRDNPTQIVELYLKWAADYQEDRITIFYDTMSNNTRMMADAIAQGIAETDPRVAVKIFNVARSDKNEILTNVFRSKGVLVGTSTMNNVMMPKIAGLVEEMTGLRFRNKRASAFGSHGWSGGAVDRLSTRLQDAGFEMSLSLKAKWRPDQDALKLCREHGREIARQWALAPLPQSTVNTVVKEETSATTTADLGPRMQCSVCQWIYDPAKGEPMQDVAPGTPWSEVPDNFLCPECSLGKDVFEELASEAK”, the “total protein half-life in vivo” value [4] is reported as 5.32 ± 0.78 h, the “total protein half-life in vivo” value [5] is reported as 3.24 h and the “total protein half-life in vivo” value [8] is reported as 1.57 h. The “total protein half-life in vivo” value [1] was 2.75 h and the “total protein half-life in vivo” value [3] was 10.1 ± 7.1 h.

In the case of “MSIYKIPLPLNILEAARERITWTLNTLPRVCVSFSGGKDSGLMLHLTAELARQMGKKICVLFIDWEAQFSCTINYVQSLRELYTDVIEEFYWVALPLTTQNSLSQYQPEWQCWEPDVEWVRQPPQDAITDPDFFCFYQPGMTFEQFVREFAEWFSQKRPAAMMIGIRADESYNRFVAIASLNKQRFADDKPWTTAAPGGHSWYIYPIYDWKVADIWTWYANHQSLCNPLYNLMYQAGVPLRHMRICEPFGPEQRQGLWLYHVIEPDRWAAMCARVSGVKSGGIYAGHDNHFYGHRKILKPEHLDWQEYALLLLNSMPEKTAEHYRNKIAIYLHWYQKKGIEVPQTQQGDIGAKDIPSWRRICKVLLNNDYWCRALSFSPTKSKNYQRYNERIKGKRQEWGILCNND”, the “total protein half-life in vivo” value [4] is reported as 5.55 h, the “total protein half-life in vivo” value [6] is reported as 6.21 h and the “total protein half-life in vivo” value [7] is reported as 4.82 h.
